How the values were obtained:
Solubility of sLZIP = format: physicochemical; conditions: saline or buffer solution
HDAC3 = HDAC3 ubiquitination (Ha-UB, GST pull-down) in 293T cells; format: cell-based; conditions: ligand treated (10 nM RZD, 24 hours)
Protocol: Therefore, in order to understand a regulation mechanism of sLZIP in the PPARγ2 transcriptional activity by binding to the FABP4 promoter region, an effect of sLZIP on the interaction between PPARγ2 and HDAC3 was examined. For this purpose, 293T cells were transfected with GST-HDAC3, Myc-PPARγ2 and Flag-sLZIP, and were treated or not treated with 10 nM of RZD for 24 hours. Cell lysates were subjected to GST pull-down analysis using a glutathione 4B bead, and a protein complex was analyzed in SDS-PAGE, and then immunoblotted with anti-GST, anti-Myc and anti-Flag antibodies (FIG. 6A). GST-HDAC3, GST-PPARγ2, Myc-PPARγ2, Flag-sLZIP and Ha-UB were expressed in the 293T cells, and the cells were treated with 10 nM of RZD for 24 hours. Cell lysates were subjected to GST pull-down analysis (FIG. 6B). GST-PPARγ2 and Flag-sLZIP were expressed in the 293T cells and treated with 10 nM of RZD for 24 hours. Cell lysates were subjected to GST pull-down analysis, and a protein complex was analyzed in SDS-PAGE, and then immunoblotted with anti-PGC1α, anti-GST and anti-Flag antibodies (FIG. 6C).

[1] = test system: primary preadipocytes and mouse embryonic fibroblasts (MEFs); assay: Adipocyte differentiation of primary preadipocytes and MEFs isolated from sLZIP TG mice; format: cell-based; conditions: cells isolated from sLZIP TG mice vs wild type mice
Excerpt: In order to generate human sLZIP transgenic (TG) mice, sLZIP genes were cloned into a pCMV-flag expression vector. The sLZIP TG mice were generated by Macrogen, Inc (Seoul, Korea). Transgenic founders were mated with wild type C57BL/6 mice to produce F1 heterozygotes. F1-F4 generations were genetically screened for transgenes at an age of 2 weeks old. The following two primers were used to amplify genomic DNA in order to identify wild type and TG mice: [NT] and 5'-[NT]3.' Adipocyte differentiation is a well-regulated procedure. PPARγ2 is a major regulator of adipogenesis, is highly expressed during adipocyte differentiation, and regulates expression of genes involved in adipogenesis. An effect of sLZIP on adipogenesis in vivo was examined. For this purpose, in order to produce human sLZIP transgenic mice, sLZIP genes were cloned in a pCMV-flag expression vector. The sLZIP TG mice were produced in Macrogen, Inc (Seoul, Korea) (FIG. 8A). Preadipocytes were isolated from epididymal adipose tissues of sLZIP TG mice. […] A promoter activity was measured according to luciferase analysis (FIG. 8B). […] Total RNA was extracted from the cells, and an mRNA expression level of mouse LZIPs was measured using RT-PCR analysis. […] Total RNA was isolated from the cells, and an mRNA expression level of mouse LZIPs was measured using RT-PCR (FIG. 9C) and real-time PCR (FIG. 9D).

[2] = test system: CREB element in the FABP4 enhancer region; assay: Electrophoretic mobility shift assay (EMSA) of His-sLZIP with FABP4 enhancer probes; format: binding
Protocol: T4 polynucleotide kinase (Promega, Madison, Wis.) was used to label 5′-terminal of oligonucleotides with [γ-^32P]ATP (Perkin Elmer, Waltham, Mass.). According to instructions of the manufacturer, unbound nucleotides were removed through tubes in a Bio-Gel P-6 spin column (Bio-Rad, Inc., Hercules, Calif.). His-sLZIP proteins were pre-incubated for 20 minutes at room temperature in a 5× binding buffer [10×GRAB, 20 mM of DTT, poly(deoxyinosinic-deoxycytidylic), Sigma, St. Louis] and radiolabeled probes. Reaction mixtures were loaded in wells of 4% nondenaturing polyacrylamide gels, and subjected to electrophoresis for 45 minutes at 180 V in a 0.5×TBE buffer. For competition experiments, a binding reaction was incubated for 30 minutes with 100-fold molar excess of unlabeled CREB binding oligonucleotides before radiolabeled oligonucleotides were added. For supershift analysis, anti-His antibodies were added to a reaction mixture on ice for additional 30 minutes.
A DNA binding ability of sLZIP with various elements in the FABP4 enhancer region was examined. For this purpose, recombinant His-sLZIP fusion proteins (3 μg) were incubated with γ-^32P-labeled oligonucleotide probes containing expected CREB binding elements (FIG. 7B). The γ-^32P-labeled oligonucleotide probes were incubated while an amount of purified His-sLZIPs was increased. For competition analysis, unlabeled CREB oligonucleotide probes of 100-fold excess were used and His antibodies were added to a reaction mixture on ice for additional […] (FIG. 7C). His-sLZIP proteins were subjected to EMSA using wild type and CREB mutant (TGATGTCA→TGGGGTCA) probes (FIG. 7D). 293T cells were temporarily transfected with PPARγ2 (0.5 μg), β-galactosidase (0.1 μg), FABP4 enhancer-luciferase reporter genes (0.2 μg) and sLZIP mutants at different contents (0.1 to 0.5 μg). After the transfection, the cells were stimulated with 10 nM of RZD (FIG. 7F). A luciferase activity was normalized to a β-galactosidase activity and represented as a relative activity (fold change). All experiments were repeated three times, and bars in the graph represent mean±standard deviation. ChIP analysis was performed using HA-sLZIP-specific antibodies and then PCR was performed. Input chromatins or immunoprecipitated chromatins were subjected to PCR and used as a control group for variables.

B1: sLZIP: human small leucine-zipper protein, isoform of LZIP, 354 amino acids, no transmembrane domain; GenBank FJ263669, SEQ ID NO: 1 (protein, listed as Homo sapiens)
chain: MELELDAGDQDLLAFLLEESGDLGTAPDEAVRAPLDWALPLSEVPSDWEVDDLLCSLLSPPASLNILSSSNPCLVHHDHTYSLPRETVSMDLESESCRKEGTQMTPQHMEELAEQEIARLVLTDEEKSLLEKEGLILPETLPLTKTEEQILKRVRRKIRNKRSAQESRRKKKVYVGGLESRVLKYTAQNMELQNKVQLLEEQNLSLLDQLRKLQAMVIEISNKTSSSSMYSSDTRGSLPAEHGVLSRQLRALPSEDPYQLELPALQSEVPKDSTHQWLDGSDCVLQAPGNTSCLLHYMPQAPSAEPPLEWPFPDLFSEPLCRGPILPLQANLTRKGGWLPTGSPSVILQDRYSG
Question: Which solubility (Solubility of sLZIP) does the source give for B1 here?
Answer: Its solubility is “very soluble in a saline or a buffer solution”.

Question: And the HDAC3 ubiquitination (HDAC3)?
Answer: Its HDAC3 ubiquitination is “inhibited HDAC3 ubiquitination”.

Question: And the adipocyte differentiation [1]?
Answer: Its adipocyte differentiation is “inhibited more than in wild type mice”.

Question: What about the “DNA binding to CREB element (EMSA, cold competition)” value ([2]; 100-fold excess unlabeled CREB probes) of the same molecule?
Answer: The value was “not bound to the CREB element when there were competitors”.

Question: And the “DNA binding to CREB mutant probes (EMSA)” value ([2]; CREB mutant TGATGTCA→TGGGGTCA)?
Answer: The value was “not bound to CREB mutant probes”.

Question: What about the “supershift (EMSA)” value ([2]; His antibodies added) of the same molecule?
Answer: The value was “supershifted”.

Question: And the “DNA binding to elements in the FABP4 enhancer region (EMSA)” value ([2]; His-sLZIP 3 μg, labeled probes)?
Answer: Its value is “directly bound to a CREB region”.

Question: And the “DNA binding ability with CREB element (EMSA)” value ([2]; increasing amount of purified His-sLZIP)?
Answer: The value was “increased in a concentration-dependent manner”.

— US10058586B2, “Use of human small leucine zipper protein in adipocyte differentiation procedure” (Korea University Research and Business Foundation, priority 2013, dated 2018)
